According to the supplement of paper PMC9732359:
± gives the uncertainty stated by the source.

Assay: protein stability index of a GFP-peptide fusion (yeast GPS) (PSI 1-4); higher = more stable; sorted into four equal gates, so the index is relative within each strain
Details: pdr5∆
How it was run: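 Yeast carrying a pooled library were grown to mid-log phase in leucine-free medium. Each library plasmid expresses Cherry and has a tiled 17-residue yeast protein peptide fused downstream of GFP. Cells were sorted into four equal gates by GFP/Cherry ratio, and plasmids from each gate were PCR-amplified, Illumina-sequenced and assigned to strains by barcode. Summing, across gates, the read frequency times the gate number gave each peptide's protein stability index.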

Row | Sequence | protein stability index
1 | DLLHPTAASEARKHKLK [RPS27A] | 3.11 ± 0.068

Same assay, conditions: san1∆

Row | Sequence | protein stability index
2 | AVAHHTDCKFIRVSGAE [RPT6] | 3.19 ± 0.14
3 | AVAVVVDPIQSVKGKVV [RPN11] | 2.29 ± 0.094
4 | AVKRGTCAVGVKGKNCV [PRE6] | 1.39 ± 0.27
5 | AVQNESVSSPIELNFDA [QCR2] | 2.86 ± 0.065
6 | AVTEREVLVTPGLEFLD [MCD1] | 2.75 ± 0.089
7 | AVYGPRSIRGSFTSQGT [MTR3] | 3.08 ± 0.098
8 | AYAQVEIQPRANIQLDF [FAS2] | 3.08 ± 0.057
9 | AYGVLDSNYKWDLSVED [PRE2] | 3.26 ± 0.086
10 | AYHQKYVDEQSKNELKK [RPS16A] | 2.02 ± 0.13
11 | CGGINDSIPYPQIVKLF [ECM29] | 1.96 ± 0.086
12 | CGHRILLKARTKRLVQF [RPC10] | 1.68 ± 0.18
13 | CIQVNCLNCEKSKLFEW [SNM1] | 3.13 ± 0.05
14 | CLEACSFILSSLEDPQV [YDL116W/NUP84] | 2.87 ± 0.038
15 | CLMRSLHKLELKAKNQE [DSN1] | 1.19 ± 0.16
16 | CLQDALDAIDDFIQLKQ [SSN2] | 2.2 ± 0.063
17 | CLTMFEDRNESVNIAFA [ECM29] | 2.81 ± 0.11
18 | CNEEQTLEAKIGGLLSK [RPO31] | 2.99 ± 0.052
19 | CNSIINKLGALKTNFET [RPB11] | 2.68 ± 0.088
20 | CSGSGMGGVSALRGMFK [FAS2] | 3.37 ± 0.096
21 | CSKAMGDLASLVLLNGR [RPP1] | 2.62 ± 0.058
22 | CSNESFASIPVSNSISR [SNU114] | 2.46 ± 0.078
23 | CSNPTCGAGVFLANHKD [RPS31] | 2.57 ± 0.24
24 | CSPKLPVEKVQRIAKND [DLS1] | 3.17 ± 0.13
25 | CSPWSLQISDIPAAGNN [SRB5] | 1.96 ± 0.055
26 | CTSLMDIIVAIKIFELK [IRR1] | 2.13 ± 0.16

Row | Sequence | protein stability index
27 | CVYSGLIPDGRHLVNRG [PRE10] | 2.1 ± 0.14
28 | CWPKDSRMRLIRQDVNL [PRP8] | 2.72 ± 0.067
29 | DADTEDPHSASLINSHL [RPC82] | 2.97 ± 0.078
30 | DALKVVLRTALVHDGLA [RPS12] | 2.72 ± 0.098
31 | DALVKRFKNSVKWYHFD [PRE7] | 3.18 ± 0.072
32 | DCLDKLLNDECTESTRE [SNF2] | 3.48 ± 0.091
33 | DCQFWETWLGSQCRLHE [PRE2] | 2.59 ± 0.11
34 | DDDDSRKSAPVDSWDRE [SKP1] | 3.21 ± 0.048
35 | DDDILIIRPILGKVRFA [SRB4] | 1.93 ± 0.15
36 | DDELMNWRRLSGRNIHL [SSN2] | 3.01 ± 0.087
37 | DDIVSHQGTPLGSHSSS [REC8] | 3.04 ± 0.16
38 | DDLADDDFEEDEDEEDD [RPC31] | 3.21 ± 0.09
39 | DDLIAEENPIMQTALRR [QCR7] | 2.92 ± 0.15
40 | DDPLENMFGDYSNEPFN [SNF6] | 3.26 ± 0.085
41 | DDPTQLVSRGGCGNTQP [RPO21] | 2.97 ± 0.11
42 | DDRGPVLESIVARTFWA [BRR2] | 2.9 ± 0.11
43 | DDSFFNETNDKKRNPSK [PRP28] | 3.13 ± 0.072
44 | DDSRNPDCKIKIAHGTT [PRE2] | 2.72 ± 0.076
45 | DDTKETVYISSIALLKM [RPN11] | 2.71 ± 0.048
46 | DDVTCDKLSVSEISDGK [SIN4] | 2.81 ± 0.08
47 | DEDKFKKLKPIVAKYDP [PRP28] | 2.9 ± 0.094
48 | DEESLVKYMPEQKITEI [RPO21] | 2.99 ± 0.1
49 | DEGMESIEMEEETDDED [RRI2] | 3.26 ± 0.18
50 | DEHNELMRQALAIKDSK [RPO21] | 2.29 ± 0.058
51 | DEINTAQDKWHLLPAFL [RET1] | 3.29 ± 0.07

Row | Sequence | protein stability index
52 | DEKVTILVDSLTGNQLP [SWI1] | 2.9 ± 0.04
53 | DELELEDAIHIALLTLK [PRE8] | 3.07 ± 0.062
54 | DELETKAEKKVELHGKR [PRP8] | 3.4 ± 0.26
55 | DELITEGNEKLAAVPAA [RPP2A] | 2.74 ± 0.083
56 | DESDSENDIEIKGPEFK [YLR335W/NUP2] | 3.03 ± 0.13
57 | DETTVPSYYYYVDPETT [ROX3] | 3.01 ± 0.049
58 | DEVITEGQADIDMESDV [POP7] | 3.33 ± 0.057
59 | DFILSLLHHVSELDSND [YJL039C/NUP192] | 1.42 ± 0.11
60 | DFKNEESLSEEHASLLV [MED8] | 3.08 ± 0.06
61 | DFLLSDWNKRFSHLAGG [BRR2] | 2.96 ± 0.065
62 | DFPELKPYKQVKQIAPA [FAS2] | 2.58 ± 0.07
63 | DFSLRYISNLLYGVTIC [REC8] | 1.83 ± 0.074
64 | DGAGGDNEVQRTMLELI [RPT1] | 3.44 ± 0.11
65 | DGIFSSKTDNIEDPNLS [YMR153W/NUP53] | 2.69 ± 0.096
66 | DGIHYILNHIGQLTGIY [PRP8] | 1.14 ± 0.12
67 | DGKLEPSTRSNFILEVF [YJL039C/NUP192] | 1.92 ± 0.14
68 | DGKLIDISGTMSGGGNH [SMC4] | 3.54 ± 0.075
69 | DGTAQLSNNKTDEEEQL [YJR042W/NUP85] | 3.27 ± 0.15
70 | DGTGVRVIVAGTLDINP [FAS1] | 2.99 ± 0.065
71 | DGVTHALYPQEARLRNL [RPB2] | 3.23 ± 0.13
72 | DHASIRRGYQVYREVCA [CYT1] | 1.27 ± 0.09
73 | DHFIHLRNLHMKRMVAQ [SNF12] | 2.77 ± 0.062
74 | DHLKLVSLFSNLRHERN [YIL149C/MLP2] | 2.5 ± 0.26
75 | DHSWFLLIGCKLDQDDE [CSI1] | 3.03 ± 0.12
76 | DIDDELNELETLIKKKQ [SMC2] | 2.99 ± 0.078

Row | Sequence | protein stability index
77 | DIDDILKKGEQKTQELN [ISW2] | 3.44 ± 0.099
78 | DIEEGPITSKSWEEGTR [MCD1] | 2.99 ± 0.15
79 | DIEQLEYSRDCFCEDHC [RPB3] | 2.92 ± 0.066
80 | DINVELFPVAAQDSLTV [RPB8] | 1.16 ± 0.23
81 | DIPFFPSSEKPNIRTMS [SSN2] | 3.1 ± 0.22
82 | DISAAIVHSSDGHLQFL [DLS1] | 3.01 ± 0.048
83 | DISAMQPVNPKPFLKGL [SMX3] | 3.2 ± 0.051
84 | DITDGKDYHTLANNVES [RPS18A] | 3.22 ± 0.042
85 | DITSDQLLQRLNDMNTE [SMC3] | 3.24 ± 0.13
86 | DIVPYFLKHNGEEDAVD [RPN1] | 2.95 ± 0.17
87 | DIYFKLKKLEKEYELLT [RPT3] | 2.29 ± 0.14
88 | DKDAFIPKLKPAPINSL [SNU114] | 2.83 ± 0.05
89 | DKDVKAKYETSILEHSG [FAS2] | 3.23 ± 0.052
90 | DKINKYSLIRETNGYDP [SNF5] | 1.92 ± 0.2
91 | DKLKDIVGQTSRTVTPA [ITC1] | 3.19 ± 0.047
92 | DKLLKRLKEKGSRVLIF [ISW2] | 1.36 ± 0.1
93 | DKNSGVKSEVDVQVDAE [ITC1] | 1.79 ± 0.12
94 | DKPLLKAGRAFHKYRLK [RPL2A] | 2.16 ± 0.059
95 | DKQARKQRTKKEDKSEA [SNF2] | 3.25 ± 0.077
96 | DLCSSVLSQFERSYPSE [ROX3] | 2.98 ± 0.074
97 | DLEEAYATQVKTDNTVD [RPT3] | 2.47 ± 0.14
98 | DLFTHLWNQWLKLNTSL [SRP68] | 2.27 ± 0.066
99 | DLIRSESMLHLSIWIKN [IRR1] | 1.51 ± 0.098
100 | DLISKKTKTSLLPTIKR [RPR2] | 2.58 ± 0.086
